Experimental data published in patent US20230303690A1 (published 2023).
Where two headings read alike, the source gives them in different places.

T1: LAG3 Protein, Human, Recombinant (His Tag) (Sino Biological Catalog No. 16498-H08H) (human, UniProt P18627 23-450)
T1 construct: Bought protein; also called hLAG3-His; LAG3-His; not shown: His tag
T1 sequence (looked up): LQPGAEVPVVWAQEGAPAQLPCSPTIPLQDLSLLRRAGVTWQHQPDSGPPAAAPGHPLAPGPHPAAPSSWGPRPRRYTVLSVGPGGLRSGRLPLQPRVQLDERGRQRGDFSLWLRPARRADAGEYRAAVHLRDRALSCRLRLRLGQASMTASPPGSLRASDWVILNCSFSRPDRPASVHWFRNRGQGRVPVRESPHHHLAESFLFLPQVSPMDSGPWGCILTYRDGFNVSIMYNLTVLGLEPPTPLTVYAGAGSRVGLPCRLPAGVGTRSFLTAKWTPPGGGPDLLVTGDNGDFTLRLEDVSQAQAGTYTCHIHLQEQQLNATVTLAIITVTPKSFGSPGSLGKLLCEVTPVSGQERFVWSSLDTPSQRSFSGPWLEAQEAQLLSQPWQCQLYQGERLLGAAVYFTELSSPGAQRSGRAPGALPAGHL

T2: human LAG3 expressed on cells (human, UniProt P18627 23-525)
T2 sequence (looked up): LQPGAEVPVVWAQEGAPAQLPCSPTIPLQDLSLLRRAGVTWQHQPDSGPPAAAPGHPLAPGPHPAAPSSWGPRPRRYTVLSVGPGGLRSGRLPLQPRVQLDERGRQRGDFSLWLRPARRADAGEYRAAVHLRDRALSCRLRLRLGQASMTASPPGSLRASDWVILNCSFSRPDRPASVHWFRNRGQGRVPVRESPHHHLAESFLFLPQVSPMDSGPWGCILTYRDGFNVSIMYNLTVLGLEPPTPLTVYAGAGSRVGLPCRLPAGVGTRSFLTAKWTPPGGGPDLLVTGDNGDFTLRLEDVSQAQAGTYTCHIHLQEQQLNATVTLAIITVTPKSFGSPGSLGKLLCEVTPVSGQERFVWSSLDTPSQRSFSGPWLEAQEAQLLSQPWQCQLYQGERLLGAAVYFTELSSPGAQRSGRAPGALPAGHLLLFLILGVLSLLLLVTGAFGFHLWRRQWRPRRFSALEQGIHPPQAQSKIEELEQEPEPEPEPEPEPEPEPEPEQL


Columns and labels:
[1] = target: T1, LAG3 Protein, Human, Recombinant (His …); assay: SPR binning on LAG3-His; competitor 20
Experimental: (§1) The chip surface was regenerated after each cycle with 25 mM NaOH followed by HBS-EP wash provided in the kit.

[2] = target: T1, LAG3 Protein, Human, Recombinant (His …); assay: SPR (Biacore), sdAb captured by anti-human Fc, LAG3-His analyte
Experimental: The binding of the single domain antibodies to recombinant human LAG3 protein (rhLAG3) was examined by Biacore™ assay. […] The coating was carried out according to the manufacturer’s instructions accompanying the kit (Catalog No. BR-1008-39, GE). […] The chip surface was regenerated after each cycle with 25 mM NaOH followed by HBS-EP wash provided in the kit.

[3] = target: T1, LAG3 Protein, Human, Recombinant (His …); assay: SPR binning on LAG3-His; competitor 1
Experimental: as §1

[4] = target: T1, LAG3 Protein, Human, Recombinant (His …); assay: SPR binning on LAG3-His; competitor 37
Experimental: as §1

[5] = target: T1, LAG3 Protein, Human, Recombinant (His …); assay: SPR binning on LAG3-His; competitor BMS
Experimental: as §1

[6] = target: T1, LAG3 Protein, Human, Recombinant (His …); assay: SPR binning on LAG3-His; competitor 17
Experimental: as §1

[7] = target: T1, LAG3 Protein, Human, Recombinant (His …); assay: SPR binning on LAG3-His; competitor 21
Experimental: as §1

[8] = target: T2, human LAG3 expressed on cells; assay: cell-based or functional assay
[9] = target: T2, human LAG3 expressed on cells; assay: cell-based or functional assay; remark: listed apart in the source
[10] = target: T1, LAG3 Protein, Human, Recombinant (His …); assay: SPR binning on LAG3-His; competitor 73
Experimental: as §1

[11] = target: T2, human LAG3 expressed on cells; assay: cell-based or functional assay; remark: listed apart in the source
[12] = target: T1, LAG3 Protein, Human, Recombinant (His …); assay: SPR binning on LAG3-His; competitor 24
Experimental: as §1

[13] = target: T1, LAG3 Protein, Human, Recombinant (His …); assay: SPR binning on LAG3-His; competitor 27
Experimental: as §1

[14] = target: T1, LAG3 Protein, Human, Recombinant (His …); assay: SPR binning on LAG3-His; competitor 18
Experimental: as §1

[15] = target: T1, LAG3 Protein, Human, Recombinant (His …); assay: SPR binning on LAG3-His; competitor 25
Experimental: as §1

| RU [1] | koff [2] | kon [2] | RU [3] | RU [4] | RU [5] | RU [6] | RU [7] | IL-2, % of BMS, at 0.005080526 ug/mL [8] | IL-2, % of BMS, at 0.015241579 ug/mL [8] | IL-2, % of BMS, at 0.045724737 ug/mL [8] | IL-2, % of BMS, at 0.137174211 ug/mL [8] | IL-2, % of BMS, at 0.411522634 ug/mL [8] | IL-2, % of BMS, at 1.234567901 ug/mL [8] | IL-2, % of BMS, at 3.703703704 ug/mL [8] | IL-2, % of BMS, at 11.11111111 ug/mL [8] | IL-2, % of BMS, at 33.33333333 ug/mL [8] | IL-2, % of BMS, at 100 ug/mL [8] | EC50 for IL-2 rescue, hLAG3 Jurkat T system [9] | Efficacy (IL-2 production, BMS = 100%) [9] | Binder | other results |
| --- | --- | --- | --- | --- | --- | --- | --- | --- | --- | --- | --- | --- | --- | --- | --- | --- | --- | --- | --- | --- | --- |
| -13.4 RU | 3.69e-07 s⁻¹ | 2.31e+06 M⁻¹ s⁻¹ | -9.5 RU | -8.5 RU | 26.9 RU | -14.7 RU | -11.4 RU | 7.39% | 10.9% | 12.9% | 5.27% | 6.53% | 15.5% | 35.1% | 45.5% | 61.7% | 60.9% | 60.6 nM | 51.9% | sdAb No. 18 (VHH, Fc of the tested form not described; also called sdAb 18; not shown: Fc part implied by anti-human Fc capture) VHH: QVQLVESGGGLVQPGGSLRLSCAASGFTLNEHAIGWFRRAPGKEREGVSCISSSDGSTYYHDSVKGRFNMSRDDAKNSVYLQMSSLKPEDTAIYYCAAALGRDCQGGQWKTSSWGQGTQVTVSS | RU [10]: -11.1 RU; IL-2, % of BMS, at 0.005080526 ug/mL [11]: 7.39%; IL-2, % of BMS, at 0.015241579 ug/mL [11]: 10.9%; IL-2, % of BMS, at 0.045724737 ug/mL [11]: 12.9%; IL-2, % of BMS, at 0.137174211 ug/mL [11]: 5.27%; IL-2, % of BMS, at 0.411522634 ug/mL [11]: 6.53%; IL-2, % of BMS, at 1.234567901 ug/mL [11]: 15.5%; IL-2, % of BMS, at 3.703703704 ug/mL [11]: 35.1%; IL-2, % of BMS, at 11.11111111 ug/mL [11]: 45.5%; IL-2, % of BMS, at 33.33333333 ug/mL [11]: 61.7%; IL-2, % of BMS, at 100 ug/mL [11]: 60.9%; RU [12]: -9.9 RU; RU [13]: -5.3 RU; RU [14]: -9.1 RU; RU [15]: 274 RU |
| -12.9 RU | 3.39e-05 s⁻¹ | 894000 M⁻¹ s⁻¹ | -8.8 RU | -8.5 RU | 30.5 RU | -13.6 RU | -12 RU | 10.7% | 2.74% | 3.44% | 10.8% | 1.26% | 17.8% | 34.9% | 47.2% | 57.7% | 48.2% | 35.8 nM | 44.7% | sdAb No. 24 (VHH, Fc of the tested form not described; also called sdAb 24; not shown: Fc part implied by anti-human Fc capture) VHH: QLQLVESGGGLVQPGGSLRLSCAASGFTLNEHAIGWFRQAPGKEREGVSCISSSDGSTYYHDSVKGRFTMSRDDAKNTVYLQMNSLKAEDTAIYYCAAALGRDCQGGQWKTSSWGQGTQVTVSS | Kd [2]: 0.038 nM; RU [10]: -11.3 RU; RU [12]: -10.1 RU; RU [13]: -6.6 RU; RU [14]: -11.2 RU; RU [15]: 33.2 RU |
| -12.6 RU | 0.00178 s⁻¹ | 6.41e+06 M⁻¹ s⁻¹ | -4.7 RU | -17.3 RU | 194 RU | -12 RU | -19.1 RU | 10.5% | 13.7% | 13.4% | 21.7% | 24.6% | 27.7% | 32.8% | 31.7% | 38.9% | 35% | 3.41 nM | 31% | sdAb No. 21 (VHH, Fc of the tested form not described; also called sdAb 21; not shown: Fc part implied by anti-human Fc capture) VHH: QLQLVESGGGLVQPGGSLRLSCAASGLTLDGYAIAWFRQAPGKEREGLSCISGTDGSTHYLDSVKGRFTISRDNGKNTMALQMNSLQFGDTAIYYCAARRGSCSGSWTYWGQGTQITVSS | Kd [2]: 0.278 nM; RU [10]: -19.5 RU; RU [12]: -18.9 RU; RU [13]: -14.8 RU; RU [14]: -10.3 RU; RU [15]: 179 RU |
